Experimental data as given in patent publication US20240117049A1 (Hoffmann-La Roche, published 2024).
Substitutions are numbered along the chain they refer to. Like-named read-outs stand apart in the source and are kept apart here.

T1: human OX40 on cells (human, UniProt P43489 29-277)
T1 sequence: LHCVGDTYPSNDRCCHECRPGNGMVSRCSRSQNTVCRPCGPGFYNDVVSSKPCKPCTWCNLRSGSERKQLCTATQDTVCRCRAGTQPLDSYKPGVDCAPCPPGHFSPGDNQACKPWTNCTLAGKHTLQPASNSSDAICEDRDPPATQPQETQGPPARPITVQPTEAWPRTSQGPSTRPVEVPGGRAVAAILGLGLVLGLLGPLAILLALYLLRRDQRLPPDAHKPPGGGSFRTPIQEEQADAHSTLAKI

T2: biotinylated human OX40 (human, UniProt P43489 29-214, limits assumed, biotinylated)
T2 sequence: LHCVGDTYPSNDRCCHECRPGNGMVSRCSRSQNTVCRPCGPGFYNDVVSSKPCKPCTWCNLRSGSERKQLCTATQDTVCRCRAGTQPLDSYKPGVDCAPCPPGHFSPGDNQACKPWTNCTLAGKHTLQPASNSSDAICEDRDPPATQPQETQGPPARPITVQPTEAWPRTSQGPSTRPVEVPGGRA

B1: P1AD3690, untargeted tetravalent OX40 (49B4) antigen binding molecule (4+0) (antibody, human IgG1, kappa, L234A L235A)
heavy: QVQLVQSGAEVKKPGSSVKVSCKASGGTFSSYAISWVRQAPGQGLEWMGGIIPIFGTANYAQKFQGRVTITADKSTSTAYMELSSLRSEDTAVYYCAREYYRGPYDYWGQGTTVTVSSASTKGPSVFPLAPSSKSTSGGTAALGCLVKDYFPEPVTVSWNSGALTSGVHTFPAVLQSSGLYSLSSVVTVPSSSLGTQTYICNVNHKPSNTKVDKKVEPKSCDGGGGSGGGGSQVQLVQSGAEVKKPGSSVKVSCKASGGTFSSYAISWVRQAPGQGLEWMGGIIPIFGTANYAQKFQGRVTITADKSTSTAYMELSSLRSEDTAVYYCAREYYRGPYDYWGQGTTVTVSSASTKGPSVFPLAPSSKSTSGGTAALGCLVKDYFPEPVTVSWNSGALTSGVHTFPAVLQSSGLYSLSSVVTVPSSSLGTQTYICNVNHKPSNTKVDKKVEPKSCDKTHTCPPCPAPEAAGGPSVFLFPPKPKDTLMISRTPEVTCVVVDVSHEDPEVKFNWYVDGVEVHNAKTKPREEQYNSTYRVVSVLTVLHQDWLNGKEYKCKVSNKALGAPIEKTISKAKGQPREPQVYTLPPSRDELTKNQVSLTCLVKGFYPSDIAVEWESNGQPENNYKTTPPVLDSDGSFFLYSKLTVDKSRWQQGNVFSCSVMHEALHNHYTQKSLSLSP
light: DIQMTQSPSTLSASVGDRVTITCRASQSISSWLAWYQQKPGKAPKLLIYDASSLESGVPSRFSGSGSGTEFTLTISSLQPDDFATYYCQQYSSQPYTFGQGTKVEIKRTVAAPSVFIFPPSDEQLKSGTASVVCLLNNFYPREAKVQWKVDNALQSGNSQESVTEQDSKDSTYSLSSTLTLSKADYEKHKVYACEVTHQGLSSPVTKSFNRGEC
B2: P1AE8875 OX40(MOXR0916) x FAP (1G1a) (3 + 1) C-terminal crossfab fusion (bispecific antibody, human IgG1, kappa, L234A L235A)
heavy 1: not shown
heavy 2: EVQLVQSGAEVKKPGASVKVSCKASGYTFTDSYMSWVRQAPGQGLEWIGDMYPDNGDSSYNQKFRERVTITRDTSTSTAYLELSSLRSEDTAVYYCVLAPRWYFSVWGQGTLVTVSSASTKGPSVFPLAPSSKSTSGGTAALGCLVEDYFPEPVTVSWNSGALTSGVHTFPAVLQSSGLYSLSSVVTVPSSSLGTQTYICNVNHKPSNTKVDEKVEPKSCGGGGSGGSGGEVQLVQSGAEVKKPGASVKVSCKASGYTFTDSYMSWVRQAPGQGLEWIGDMYPDNGDSSYNQKFRERVTITRDTSTSTAYLELSSLRSEDTAVYYCVLAPRWYFSVWGQGTLVTVSSASTKGPSVFPLAPSSKSTSGGTAALGCLVEDYFPEPVTVSWNSGALTSGVHTFPAVLQSSGLYSLSSVVTVPSSSLGTQTYICNVNHKPSNTKVDEKVEPKSCDKTHTCPPCPAPEAAGGPSVFLFPPKPKDTLMISRTPEVTCVVVDVSHEDPEVKFNWYVDGVEVHNAKTKPREEQYNSTYRVVSVLTVLHQDWLNGKEYKCKVSNKALGAPIEKTISKAKGQPREPQVCTLPPSRDELTKNQVSLSCAVKGFYPSDIAVEWESNGQPENNYKTTPPVLDSDGSFFLVSKLTVDKSRWQQGNVFSCSVMHEALHNHYTQKSLSLSPG
light 1: not shown
light 2: EIVLTQSPATLSLSPGERATLSCRASESVDNYGLSFINWFQQKPGQAPRLLIYGTSNRGSGIPARFSGSGSGTDFTLTISSLEPEDFAVYFCQQSNEVPYTFGGGTKVEIKSSASTKGPSVFPLAPSSKSTSGGTAALGCLVKDYFPEPVTVSWNSGALTSGVHTFPAVLQSSGLYSLSSVVTVPSSSLGTQTYICNVNHKPSNTKVDKKVEPKSC
notes: also called MOX0916 3+1
B3: P1AE8872 OX40(MOXR0916) x FAP (1G1a) (2 + 1) C-terminal crossfab fusion (bispecific antibody, human IgG1, kappa, L234A L235A)
heavy 1: not shown
heavy 2: EVQLVQSGAEVKKPGASVKVSCKASGYTFTDSYMSWVRQAPGQGLEWIGDMYPDNGDSSYNQKFRERVTITRDTSTSTAYLELSSLRSEDTAVYYCVLAPRWYFSVWGQGTLVTVSSASTKGPSVFPLAPSSKSTSGGTAALGCLVEDYFPEPVTVSWNSGALTSGVHTFPAVLQSSGLYSLSSVVTVPSSSLGTQTYICNVNHKPSNTKVDEKVEPKSCDKTHTCPPCPAPEAAGGPSVFLFPPKPKDTLMISRTPEVTCVVVDVSHEDPEVKFNWYVDGVEVHNAKTKPREEQYNSTYRVVSVLTVLHQDWLNGKEYKCKVSNKALGAPIEKTISKAKGQPREPQVCTLPPSRDELTKNQVSLSCAVKGFYPSDIAVEWESNGQPENNYKTTPPVLDSDGSFFLVSKLTVDKSRWQQGNVFSCSVMHEALHNHYTQKSLSLSPG
light 1: not shown
light 2: B2 light 2
notes: also called MOX0916 2+1
B4: P1AF6455 OX40(CLC563) x FAP (1G1a_EPKSCS) (3 + 1) C-terminal crossfab fusion (bispecific antibody, human IgG1, kappa, L234A L235A)
heavy 1: not shown
heavy 2: not shown
light 1: not shown
light 2: EIVLTQSPATLSLSPGERATLSCRASESVDNYGLSFINWFQQKPGQAPRLLIYGTSNRGSGIPARFSGSGSGTDFTLTISSLEPEDFAVYFCQQSNEVPYTFGGGTKVEIKSSASTKGPSVFPLAPSSKSTSGGTAALGCLVKDYFPEPVTVSWNSGALTSGVHTFPAVLQSSGLYSLSSVVTVPSSSLGTQTYICNVNHKPSNTKVDKKVEPKSCS
notes: also called CLC-563, S-variant 3+1; C2
B5: P1AE1702_Fab, humanized anti-FAP Fab VH2G2a/VL2G2a (Fab, V domains shown)
VH: EVQLLESGGGLVQPGGSLRLSCAASGYTLTDYNMDWVRQAPGKGLEWVGDIYPNTGGTIYNQKFKGRFTISIDKSKNTAYLQMNSLRAEDTAVYYCTRFRGIHYAMDYWGQGTTVTVSS
VL: DIQMTQSPSSLSASVGDRVTITCRASESVDNYGLSFINWFQQKPGQPPKLLIYGTSNRGSGVPSRFSGSGSGTDFTLTISSLQPEDFAMYFCQQSNEVPYTFGGGTKVEIK
B6: 4B9_Fab (Fab, V domains shown)
VH: EVQLLESGGGLVQPGGSLRLSCAASGFTFSSYAMSWVRQAPGKGLEWVSAIIGSGASTYYADSVKGRFTISRDNSKNTLYLQMNSLRAEDTAVYYCAKGWFGGFNYWGQGTLVTVSS
VL: EIVLTQSPGTLSLSPGERATLSCRASQSVTSSYLAWYQQKPGQAPRLLINVGSRRATGIPDRFSGSGSGTDFTLTISRLEPEDFAVYYCQQGIMLPPTFGQGTKVEIK
notes: Fab; also called anti-FAP 4B9 Fab
B7: P1AE1690_Fab, humanized anti-FAP Fab VH1G2a/VL1G1a (Fab, V domains shown)
VH: QVQLVQSGAEVKKPGASVKVSCKASGYTLTDYNMDWVRQAPGKSLEWIGDIYPNTGGTIYNQKFKGRVTMTIDKSTSTVYMELSSLRSEDTAVYYCTRFRGIHYAMDYWGQGTTVTVSS
VL: EIVLTQSPATLSLSPGERATLSCRASESVDNYGLSFINWFQQKPGQAPRLLIYGTSNRGSGIPARFSGSGSGTDFTLTISSLEPEDFAVYFCQQSNEVPYTFGGGTKVEIK
B8: P1AE1689_Fab, humanized anti-FAP Fab VH1G1a/VL1G1a (Fab, V domains shown)
VH: B7 VH with K43Q, S44G, K74T
VL: B7 VL
notes: also called FAP antibody 1G1a; H212
B9: P1AE1693_Fab, humanized anti-FAP Fab VH1G2a/VL1G2a (Fab, V domains shown)
VH: B7 VH
VL: B7 VL with A47P

Columns and labels:
human OX40 on cells [1] = biological target: T1, human OX40 on cells; assay: cell-based or functional assay
human OX40 on cells [2] = biological target: T1, human OX40 on cells; assay: cell-based or functional assay; remark: listed apart in the source
[3] = biological target: T3, human Fibroblast Activation Protein (FAP) expressed on cells (human, UniProt Q12884 1-760); assay: flow cytometry, NIH/3T3-huFAP clone 19 cells
T3 construct: cell surface FAP on transfected HEK cells or NIH/3T3-huFAP clone 19 fibroblasts; also called huFAP; human FAP-transfected HEK cells

human OX40 on cells [4] = biological target: T1, human OX40 on cells; assay: flow cytometry, activated human CD4+ T cells
[5] = biological target: T4, FcRn (biotinylated, coupled to streptavidin-sepharose); assay: FcRn affinity chromatography, pH gradient, retention compared to standards
T4 construct: also called neonatal Fc receptor

[6] = biological target: T5, biotinylated recombinant human FAP (human, UniProt Q12884 27-760, biotinylated); assay: SPR, stressed against unstressed sample, normalised to anti-hu IgG capture
T5 construct: the Biacore paragraphs only say biotinylated (recombinant) human FAP; also called biotinylated human FAP; recombinant huFAP

biotinylated human OX40 = biological target: T2, biotinylated human OX40; assay: as above
human OX40 on cells [7] = biological target: T1, human OX40 on cells; assay: cell-based or functional assay; remark: listed apart in the source
human OX40 on cells [8] = biological target: T1, human OX40 on cells; assay: cell-based or functional assay; remark: listed apart in the source
human OX40 on cells [9] = biological target: T1, human OX40 on cells; assay: cell-based or functional assay; remark: listed apart in the source
human OX40 on cells [10] = biological target: T1, human OX40 on cells; assay: cell-based or functional assay; remark: listed apart in the source
[11] = biological target: T5, biotinylated recombinant human FAP; assay: SPR (Biacore)
[12] = biological target: T5, biotinylated recombinant human FAP; assay: SPR (Biacore), biotinylated huFAP on CAP chip, Fab as analyte, 1:1 fit

T4 sequence (P55899 24-297, chain 1 of 2): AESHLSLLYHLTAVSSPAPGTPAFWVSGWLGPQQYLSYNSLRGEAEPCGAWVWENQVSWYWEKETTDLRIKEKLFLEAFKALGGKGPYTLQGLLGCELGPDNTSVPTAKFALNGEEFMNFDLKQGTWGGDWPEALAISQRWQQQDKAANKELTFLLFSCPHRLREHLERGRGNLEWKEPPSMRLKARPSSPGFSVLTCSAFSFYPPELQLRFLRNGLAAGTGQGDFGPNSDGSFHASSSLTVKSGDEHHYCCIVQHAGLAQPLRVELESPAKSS
T4 sequence (P61769 21-119, chain 2 of 2, further chain): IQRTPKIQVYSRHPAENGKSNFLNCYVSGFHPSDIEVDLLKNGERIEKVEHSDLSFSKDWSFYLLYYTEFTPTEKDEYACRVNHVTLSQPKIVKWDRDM

Binder | EC50 of NFκB activation, HeLa_hOx40_NFkB_Luc1, w/ hu FAP+ fibroblasts (human OX40 on cells [1]) | AUC of CD25 upregulation compared to reference compound [%] (human OX40 on cells [2]) | EC50 [3] | EC50 (human OX40 on cells [4]) | FcRn affinity (relative retention) [5] | binding activity [%] after 2 weeks at pH 6.0/40°C [6] | binding activity [%] after 2 weeks at pH 7.4/37°C [6] | binding activity [%] after 2 weeks at pH 6.0/40°C (biotinylated human OX40) | binding activity [%] after 2 weeks at pH 7.4/37°C (biotinylated human OX40) | Kd [11] | T ½ [11] | koff [11] | kon [11] | other results
B1 | 0.18 nM | 13% | – | – | – | – | – | – | – | – | – | – | – | EC50 of NFκB activation, HeLa_hOx40_NFkB_Luc1, w/o crosslinking (human OX40 on cells [1]): 0.23 nM
B2 | 0.31 nM | 100% | 2.7 nM | 0.69 nM | -0.22 | > 90% | > 90% | > 90% | > 90% | – | – | – | – | EC50 of NFκB activation, HeLa_hOx40_NFkB_Luc1, w/o crosslinking (human OX40 on cells [1]): 3.94 nM; EC50 of CD25 upregulation on CD4+ T cells, suboptimal TCR stimulation of human PBMC with FAP+ fibroblasts (human OX40 on cells [2]): 0.02 nM
B3 | 0.19 nM | 106% | 1.78 nM | 0.9 nM | 0.15 | > 90% | > 90% | > 90% | > 90% | – | – | – | – | EC50 of CD25 upregulation on CD4+ T cells, suboptimal TCR stimulation of human PBMC with FAP+ fibroblasts (human OX40 on cells [2]): 0.01 nM
B4 | – | – | 1.71 nM | 1.47 nM | -0.1 | 98% | 96% | 100% | 100% | – | – | – | – | EC50 of NFκB activation, HeLa_hOx40_NFkB_Luc1, w/ hu FAP+ fibroblasts (human OX40 on cells [7]): 0.2 nM; EC50 of NFκB activation, HeLa_hOx40_NFkB_Luc1, w/o crosslinking (human OX40 on cells [7]): 0.8 nM; EC50 of CD25 upregulation on CD4+ T cells, suboptimal TCR stimulation of human PBMC with FAP+ fibroblasts (human OX40 on cells [8]): 0.003 nM; EC50 of increased CEACAM5 TCB mediated cytokine secretion of human PBMC with FAP+ fibroblasts (human OX40 on cells [9]): 0.058 nM; EC50 of suppression of TGFβ-induced FoxP3 (FoxP3 MFI) on CD4+ CD25+ Treg cells, FAP-coated beads (human OX40 on cells [10]): 0.25 nM
B5 | – | – | – | – | – | – | – | – | – | 0.213 nM | 1.8 h | 0.000107 s⁻¹ | 502000 M⁻¹ s⁻¹ | –
B6 | – | – | – | – | – | – | – | – | – | 0.279 nM | 0.917 h | 0.000208 s⁻¹ | 747000 M⁻¹ s⁻¹ | Kd [12]: 0.43 nM; koff [12]: 0.00078 s⁻¹; kon [12]: 1.82e+06 M⁻¹ s⁻¹
B7 | – | – | – | – | – | – | – | – | – | 0.114 nM | 3.05 h | 6.3e-05 s⁻¹ | 551000 M⁻¹ s⁻¹ | –
B8 | – | – | – | – | – | – | – | – | – | 0.095 nM | 4.57 h | 4.21e-05 s⁻¹ | 443000 M⁻¹ s⁻¹ | –
B9 | – | – | – | – | – | – | – | – | – | 0.135 nM | 2.68 h | 7.18e-05 s⁻¹ | 530000 M⁻¹ s⁻¹ | –
